# Experiments:
# [1] = test system: HeLa cells; assay: Cell viability by MTT assay; assay type: cell-based; conditions: 24 h
# Method: To assess the cytotoxic potential of Nuc1511 and Nuc1510, HeLa cells were treated with AG–Nuc1511 or AG–Nuc1510 at concentrations of 1, 3, 5, and 10 µM for 24 h, and cell viability was quantified using the MTT assay (Figure 4). AG–Nuc1511 caused a gradual concentration-dependent decline in viability, reaching approximately 78% at 10 µM, which was statistically significant relative to the untreated control. […] Taken together, both fusion proteins were well tolerated at concentrations up to 5 µM, with cytotoxicity becoming apparent only at 10 µM.
# HeLa cells were seeded at 1 × 10^4 cells per well in 96-well microplates (Nunc^TM MicroWell^TM; Thermo Fisher Scientific) and allowed to adhere overnight. The culture medium was replaced with AG–Nuc1511 or AG–Nuc1510 at 1, 3, 5, or 10 µM prepared in DMEM supplemented with 10% FBS. Cell viability was assessed by MTT assay. Following 24 h incubation, treatment solutions were removed and cells were washed with PBS. A mixture of 50 µL MTT solution (Fujifilm) (5 mg/mL in PBS) and 50 µL Opti-MEM I Reduced Serum Medium (Thermo Fisher Scientific) was added to each well, and plates were incubated at 37 °C for 3 h. The medium was then removed, and formazan crystals were dissolved by addition of 150 µL MTT solvent (4 mM HCl, 0.1% NP-40 substitute in isopropanol), followed by 30 min agitation on an orbital shaker protected from light, with additional pipetting to ensure complete dissolution. Absorbance was measured at 590 nm. All conditions were performed in triplicate.
# [2] = test system: HeLa cells; assay: Cellular uptake of TAMRA-labeled Nuc1510 by fluorescence microscopy; assay type: cell-based; conditions: 5 µM in DMEM with 10% FBS, 1 h, 4 h or overnight (any incubation condition)
# Method: To examine the intrinsic cell-penetrating ability of Nuc1510, HeLa cells were treated with TAMRA-labeled Nuc1510 prepared in medium supplemented with 10% FBS and analyzed by fluorescence microscopy at 1 h, 4 h, and overnight incubation time points.
# HeLa cells were seeded at 2 × 10^4 cells per well in 8-well chamber slides (Millicell EZ Slide, Sigma-Aldrich, St. Louis, MO, USA; or µ-Slide 8 Well glass-bottom, ibidi, Gräfelfing, Germany) and allowed to adhere for 24 h. For assessment of intrinsic cell-penetrating ability, the culture medium was replaced with free TAMRA or TAMRA–Nuc1510 at 5 µM prepared in DMEM supplemented with 10% FBS. For assessment of cargo delivery, cells were treated with AG, AG–Nuc1511, AG–Nuc1510, or AG–TAT at 1, 2, or 3 µM prepared in DMEM with 10% FBS. All cargo delivery treatments were performed at 37 °C, and the highest concentration (3 µM) was additionally tested at 4 °C to assess the contribution of energy-dependent uptake pathways.
# TAMRA–Nuc1510 samples were incubated for 1 h, 4 h, or overnight at 37 °C, whereas all AG–CPP samples were incubated overnight only. […] Fluorescence imaging was performed using a Keyence BZ-X800 (Keyence, Osaka, Japan) digital fluorescence microscope. […]
# [3] = test system: four cell lines; conditions: CPP fused to EGFP, across four cell lines; ref 45 (Patel et al.); cited from earlier work
# Method: To quantify intracellular delivery, flow cytometry was performed following a stringent surface-depletion protocol. Cells were washed with an acidic glycine-NaCl solution to disrupt electrostatic interactions between surface-bound AG–CPP and the plasma membrane, then treated with trypsin, which both detaches cells from the culture plate and cleaves CPP sequences at arginine and lysine residues—amino acids abundant in all constructs tested—thereby eliminating residual surface-associated fluorescence. This protocol ensures that the measured fluorescence predominantly reflects int ...
substance,measurement,setting,value
"MKDHLIHNHHKEEHAHAHNKDYDIPTTHHAHHSTENLYFQGSSGSSGMSVIKPEMKIKLCMRGTVNGHNFVIEGEGKGNPYEGTQILDLNVTEGAPLPFAYDILTTVFQYGNRAFTKYPADIQDYFKQTFPEGYHWERSMTYEDQGICTATSNISMRGDCFFYDIRFDGTNFPPNGPVMQKKTLKWEPSTEKMYVRDGVLKGDVNMALLLEGGGHYRCDFKTTYKAKKDVRLPDAHKVDHRIEILKHDKDYNKVKLYENAVARYSMLPSQAKGLQQGGTGGGGSTLKERCLQVVRSLVKKKRTLRKNDRKKR [AG–Nuc1511, monomeric Azami Green genetically fused at its C-terminus via a linker to Nuc1511]",Viability (%),"[1]; 10 µM, relative to untreated cells (100%), n = 3, 10 µM",approximately 78%
5(6)-carboxytetramethylrhodamine [Free TAMRA],Intracellular TAMRA fluorescence,[2],no detectable intracellular fluorescence
"MKDHLIHNHHKEEHAHAHNKDYDIPTTHHAHHSTENLYFQGSSGSSGMSVIKPEMKIKLCMRGTVNGHNFVIEGEGKGNPYEGTQILDLNVTEGAPLPFAYDILTTVFQYGNRAFTKYPADIQDYFKQTFPEGYHWERSMTYEDQGICTATSNISMRGDCFFYDIRFDGTNFPPNGPVMQKKTLKWEPSTEKMYVRDGVLKGDVNMALLLEGGGHYRCDFKTTYKAKKDVRLPDAHKVDHRIEILKHDKDYNKVKLYENAVARYSMLPSQAKGLQQGGTGGGGSKVLSRVVQLCREKLTRRRRSNRR [AG–Nuc1510, monomeric Azami Green genetically fused at its C-terminus via a linker to Nuc1510]",Reduction of viability,[1]; 10 µM,approximately 50%
same,Effect on viability,"[1]; 1, 3, or 5 µM, Welch's t-test against untreated control",did not significantly reduce viability
Penetratin,Uptake efficiency relative to TAT,[3],performed comparably to TAT

# Source: article PMC13466294, “Nucleolaron1511 and Nucleolaron1510 Facilitate Effective Intracellular Delivery of Azami Green Protein in HeLa Cells” (International Journal of Molecular Sciences, 2026)
